Bridge positions count the residues as written; N and C are the ends. Square brackets hold non-standard residues; d marks the D form. Ends that are not written are not given here. S5 = C=CCCC[C@](C)(N)C(=O)O; βAla = NCCC(=O)O
Experiments:
[1] = target: ICN1-CSL complex (Homo sapiens, UniProt P46531+Q06330); details: cited from earlier work
[2] = system: Notch target genes (HES1, MYC, DTX1); details: incubated with human T-ALL cells; cited from earlier work
[3] = target: T1, Bio-sdnMAML1 binding to GST-RAMANK1-CSL (Homo sapiens, UniProt P46531+Q06330); test: ALPHAscreen NTC competition assay; details: titration of unlabeled peptide (FIG. 2h)
T1 construct: RAMANK1 (residues 1761-2127) and GST-labeled RAMANK1; Human CSL bearing a C-terminal hexahistidine tag (residues 9-435); hexahistidine (His6) (C); made in house; host or cells: E. coli BL21(DE3) pLysS (proteins); solid-phase peptide synthesis (Bio-sdnMAML1)
Description: The biophysics of NTC assembly has been studied using relatively low-throughput assays including electrophoretic-mobility shift assays^24, isothermal titration calorimetry^49, and various immunoprecipitation strategies. More recently, Del Bianco et al. reported the use of a FRET-based system measuring the proximity of a donor fluorophore-labeled ANK protein to an acceptor-labeled oligonucleotide upon NTC assembly, which allowed determination of relative equilibrium constants for the entire complex^45. We also reported the use of surface plasmon resonance (SPR) and fluorescence polarization assays measuring the association of NTC components with each other and with stapled peptides^37. To date however, there are no high-throughput assays reported that quantitatively measure dnMAML1-NOTCH-CSL complex formation. […] The ALPHAscreen technology (ALPHA meaning amplified luminescence proximity homogenous assay) employs functionalized beads approximately 200 nm in diameter to detect the association of cognate binding partners in solution^50,51. […] The use of microwave-assisted peptide synthesis and a slightly altered SPPS protocol readily afforded the biotinylated sdnMAML1 peptide (bio-sdnMAML1, and others with alternative N-terminal modifications) at greater than 95% purity by LCMS analysis (FIG. 2b, FIG. 7). […]

T1 sequence (P46531 1760-2126): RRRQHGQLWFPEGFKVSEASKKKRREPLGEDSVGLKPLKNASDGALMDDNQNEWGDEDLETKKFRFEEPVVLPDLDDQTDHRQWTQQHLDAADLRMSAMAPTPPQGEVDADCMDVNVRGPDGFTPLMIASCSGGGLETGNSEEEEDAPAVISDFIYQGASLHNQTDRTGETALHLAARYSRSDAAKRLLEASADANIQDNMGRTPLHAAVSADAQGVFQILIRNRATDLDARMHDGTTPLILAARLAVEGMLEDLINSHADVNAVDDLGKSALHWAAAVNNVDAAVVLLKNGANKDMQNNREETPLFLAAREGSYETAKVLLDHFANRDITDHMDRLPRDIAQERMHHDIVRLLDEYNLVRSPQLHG
T1 sequence (Q06330 23-449): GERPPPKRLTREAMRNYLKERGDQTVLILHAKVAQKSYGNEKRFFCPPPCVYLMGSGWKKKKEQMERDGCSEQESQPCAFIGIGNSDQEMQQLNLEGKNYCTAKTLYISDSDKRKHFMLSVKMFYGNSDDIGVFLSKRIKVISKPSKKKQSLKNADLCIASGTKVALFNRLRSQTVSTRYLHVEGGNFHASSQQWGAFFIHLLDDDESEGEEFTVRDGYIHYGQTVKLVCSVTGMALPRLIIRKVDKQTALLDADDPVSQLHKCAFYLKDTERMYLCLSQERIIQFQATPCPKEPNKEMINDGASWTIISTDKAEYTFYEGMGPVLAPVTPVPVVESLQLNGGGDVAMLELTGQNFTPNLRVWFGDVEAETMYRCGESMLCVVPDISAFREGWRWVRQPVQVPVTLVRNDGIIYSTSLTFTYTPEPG
Sequence of ICN1-CSL complex (P46531 1754-2555 limits assumed): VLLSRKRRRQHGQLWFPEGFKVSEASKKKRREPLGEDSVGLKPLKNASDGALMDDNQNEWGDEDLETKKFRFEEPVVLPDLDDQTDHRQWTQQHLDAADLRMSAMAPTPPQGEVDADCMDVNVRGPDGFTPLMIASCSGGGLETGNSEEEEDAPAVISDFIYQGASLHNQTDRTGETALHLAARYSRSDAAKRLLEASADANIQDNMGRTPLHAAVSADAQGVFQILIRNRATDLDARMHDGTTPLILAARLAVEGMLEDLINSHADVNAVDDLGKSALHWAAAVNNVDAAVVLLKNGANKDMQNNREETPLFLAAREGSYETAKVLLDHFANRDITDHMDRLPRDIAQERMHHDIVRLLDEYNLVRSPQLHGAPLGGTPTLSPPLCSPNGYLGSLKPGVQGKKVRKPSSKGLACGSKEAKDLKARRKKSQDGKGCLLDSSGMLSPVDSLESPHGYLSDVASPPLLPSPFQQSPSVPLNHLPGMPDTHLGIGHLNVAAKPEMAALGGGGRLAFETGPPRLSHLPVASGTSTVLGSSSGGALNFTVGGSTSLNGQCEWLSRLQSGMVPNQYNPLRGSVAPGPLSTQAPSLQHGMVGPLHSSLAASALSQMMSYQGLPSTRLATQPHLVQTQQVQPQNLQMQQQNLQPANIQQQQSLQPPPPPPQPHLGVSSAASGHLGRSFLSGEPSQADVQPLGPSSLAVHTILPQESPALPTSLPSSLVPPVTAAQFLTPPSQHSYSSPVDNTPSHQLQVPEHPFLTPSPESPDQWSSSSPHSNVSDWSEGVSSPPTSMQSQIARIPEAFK
Sequence of ICN1-CSL complex (Q06330 whole entry): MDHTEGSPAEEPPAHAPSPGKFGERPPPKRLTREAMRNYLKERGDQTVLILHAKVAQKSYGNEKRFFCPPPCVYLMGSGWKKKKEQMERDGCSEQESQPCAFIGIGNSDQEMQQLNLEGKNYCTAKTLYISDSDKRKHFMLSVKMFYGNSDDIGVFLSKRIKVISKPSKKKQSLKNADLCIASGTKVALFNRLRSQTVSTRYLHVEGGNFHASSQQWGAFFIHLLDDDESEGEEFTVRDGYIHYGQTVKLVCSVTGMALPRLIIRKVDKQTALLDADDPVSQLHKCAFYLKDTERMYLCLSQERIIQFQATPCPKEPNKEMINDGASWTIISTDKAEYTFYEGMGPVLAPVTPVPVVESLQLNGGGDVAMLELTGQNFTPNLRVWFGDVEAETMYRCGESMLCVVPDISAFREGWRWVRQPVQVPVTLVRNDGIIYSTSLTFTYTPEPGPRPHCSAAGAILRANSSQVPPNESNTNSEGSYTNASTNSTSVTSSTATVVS

| Substance | binding to ICN1-CSL complex and competition with MAML1 [1] | expression of canonical Notch target genes [2] | dissociation of pre-incubated bio-sdnMAML1-GSTRAMANK1-CSL complex [3] |
| --- | --- | --- | --- |
| SAHM1: stapled MAML1 E21-T36 peptide with E28 and R32 replaced by i→i+4 ligated α,α-disubstituted S5 amino acids; previously reported (Ac-W[βAla]ERLRRRI[S5]LCR[S5]HHST; staple 10-14) | specifically bind the ICN1-CSL complex and competitively inhibit binding of recombinant dnMAML1 as well as full-length MAML1 | inhibit the expression of a panel of canonical Notch target genes |  |
| Ac-sdnMAML1: non-labeled competitor dnMAML1 peptide capped with an acetylated beta-alanine spacer ({Ac-βAla}-HSAVMERLRRRIELCRRHHSTCEARYEAVSPERLELERQHTFALHQRCIQAKAKR; staple (positions not given here); also: stapled, staple positions not given here) |  |  | dose-dependent dissociation of the complex |
